Values of other authors in patent US20240024386A1, “MICROBIOME MEDIATED INDUCTION OF IMMUNE TOLERANCE AND RESOLUTION OF INFLAMMATION” (INFINANT HEALTH, INC., priority 2020, published 2024).

Tested on: COVID-19
Conditions: triple therapy with lopinavir—ritonavir and ribavirin

B1: IFNβ-1b: interferon beta-1b, used in triple therapy with lopinavir—ritonavir and ribavirin (protein, UniProt P01574 22-187, looked up, variant C17S)
Interferon beta: MSYNLLGFLQRSSNFQSQKLLWQLNGRLEYCLKDRMNFDIPEEIKQLQQFQKEDAALTIYEMLQNIFAIFRQDSSSTGWNETIVENLLANVYHQINHLKTVLEEKLEKEDFTRGKLMSSLHLKRYYGRILHYLKAKEYSHCAWTIVRVEILRNFYFINRLTGYLRN
modifications: lacks Met1; non-glycosylated
notes: interferon beta-1b, used in triple therapy with lopinavir—ritonavir and ribavirin
period of viral shedding for COVID-19: shortened
